Target: T1, GST-VRK1 (human, UniProt Q99986 1-396)
T1 sequence (looked up): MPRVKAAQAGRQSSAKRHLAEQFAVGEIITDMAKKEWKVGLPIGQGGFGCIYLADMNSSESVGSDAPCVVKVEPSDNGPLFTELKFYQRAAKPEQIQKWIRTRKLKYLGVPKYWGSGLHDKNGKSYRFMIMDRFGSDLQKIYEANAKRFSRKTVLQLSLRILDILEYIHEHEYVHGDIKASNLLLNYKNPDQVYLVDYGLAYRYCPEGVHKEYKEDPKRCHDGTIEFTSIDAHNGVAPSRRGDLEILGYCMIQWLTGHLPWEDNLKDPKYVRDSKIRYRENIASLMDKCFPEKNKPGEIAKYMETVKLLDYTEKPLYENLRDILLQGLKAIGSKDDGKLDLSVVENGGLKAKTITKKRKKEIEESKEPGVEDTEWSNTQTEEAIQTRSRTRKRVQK
Assay: cell-based or functional assay

IC50 of SIRT2 for inhibition of VRK1 autophosphorylation (in vitro kinase assay, dose-dependent): 190 nM
IC50 of SIRT2 for inhibition of the phosphorylation of histone H3 by VRK1 (in vitro kinase assay, dose-dependent): 150 nM
B1: SIRT2-his (enzyme, human, UniProt Q8IXJ6 1-389, looked up)
chain: MAEPDPSHPLETQAGKVQEAQDSDSDSEGGAAGGEADMDFLRNLFSQTLSLGSQKERLLDELTLEGVARYMQSERCRRVICLVGAGISTSAGIPDFRSPSTGLYDNLEKYHLPYPEAIFEISYFKKHPEPFFALAKELYPGQFKPTICHYFMRLLKDKGLLLRCYTQNIDTLERIAGLEQEDLVEAHGTFYTSHCVSASCRHEYPLSWMKEKIFSEVTPKCEDCQSLVKPDIVFFGESLPARFFSCMQSDFLKVDLLLVMGTSLQVQPFASLISKAPLSTPRLLINKEKAGQSDPFLGMIMGLGGGMDFDSKKAYRDVAWLGECDQGCLALAELLGWKKELEDLVRREHASIDAQSGAGVPNPSTSASPKKSPPPAKDEARTTEREKPQ

From PMC10003087, “VRK1 Kinase Activity Modulating Histone H4K16 Acetylation Inhibited by SIRT2 and VRK-IN-1” (International Journal of Molecular Sciences, 2023)
